Measurements from patent publication US11643691B2, “Predictive biomarkers for cancer immunotherapy and methods of using same” (Duke University, priority 2018, dated 2023).

Key:
DCs [1] = test: qRT-PCR / qPCR array / immunoblot gene expression in DCs; type: cell-based, Murine
Protocol: Dendritic Cell Conditioning: DCs were treated with Wnt3a (100 ng/mL), Wnt5a (200 ng/mL), LPS (1 μg/mL), 1-MT (1 mM), 2DG (1 mM), or ETO (100 μM), 2-DG(2-deoxy-d-glucose, 1 mM), Oligomycin (1 μM), succinylacetone (250 μM), […]
Antibodies, Immunoprecipitation, and Immunoblot Analysis: Primary antibodies including CPT1A (Cell signaling), PPAR-γ (Santa Cruz Biotechnology), β-catenin, β-actin (Millipore), p-AMPK(T172)/AMPK (Cell signaling), p-AKT(T308)/Akt (Cell Signaling) were used at 1:1000. Secondary antibodies including goat anti-rabbit IgG-HRP (Millipore) and goat anti-mouse IgG-HRP (Millipore) were used at 1:5000. Cells were lysed in Laemmli sample buffer after treatment and subjected to SDS-polyacrylamide gel electrophoresis and immunoblot analysis. For immunoprecipitation, cells were lysed in radio immunoprecipitation assay (RIPA) buffer [10 mM sodium phosphate (pH 8.0), 150 mM NaCl, 1% Triton X-100, 1% sodium deoxycholate, and 0.1% SDS in the presence of 1 mM DTT, 1 mM phenylmethylsulfonylfluoride, and a protease inhibitor cocktail (Sigma)], precleared with protein A beads, and then incubated with 1 μg of antibody against β-catenin or isotype control IgG with protein A-agarose beads on a rotator overnight at 4° C. After 3 washes with RIPA buffer, immunoprecipitated complexes were eluted in sample buffer by boiling and subjected to immunoblot analysis. Immunoblots were visualized by chemiluminescence substrate (ThermoFisher) and imaged by a ChemiDoc XRSplus system (BioRad).
RNA Isolation, RT-qPCR, qPCR Array: Total RNA was isolated by RNeasy Plus Mini Kit(Qiagen). RNA(500 ng) were used in cDNA Synthesis (iScript, BioRad). Quantification of mRNA for genes involved in PPARγ signaling was performed using Mouse PrimePCR PPAR Array according to the manufacturer's protocol (BioRad). Real-time PCR was performed using an ABI7500 Real-Time PCR system (Life Technologies). Data analysis utilized the PrimePCR Analysis Software (BioRad). Conventional qPCR was performed using validated primers, and SsoAdvanced Universal SYBR Green Super mix (BioRad) or Taqman probes (Applied Biosystems) for heme synthesis enzymes.

DCs [2] = test: PpIX flow cytometry analysis and hemin colorimetric assay; type: cell-based, Murine
Protocol: IDO enzymatic assay and Hemin assay: DC IDO enzyme activity was measured by the conversion of L-tryptophan to L-kynurenine in conditioned media by HPLC (Pallotta et al., 2011). Intracellular hemin was measured using a colorimetric assay kit (BioVision).
PpIX Analysis: DCs were terminally incubated in the presence of 1 mM δ-aminolevulinic acid (ALA) for 4 hrs. Intracellular PpIX was analyzed by flow cytometry as previously described (Hryhorenko et al., 1998).

[3] = system: BRAF^V600EPTEN^−/− melanoma cell line; test: Qrt-PCR of chemokines in melanoma cell line after rWnt5a; type: cell-based; conditions: vs vehicle ctrl
Description: (A) TCGA melanoma database gene expression association analysis of CXCL5, CXCL2, and CXCR2 with WNT5A. (B) Whole tumor tissue Western blot analysis of Wnt5a, nuclear Yap-1, CXCL5 and β-actin (loading control). Representative blot shown (n=3). (C) Plasma CXCL5 ELISA following anti-PD-1 ab therapy vs IgG isotype ctrl therapy in the transgenic BRAF^V600EPTEN^−/− melanoma model (n=5). bottom, plasma CXCL5 dot blot following anti-PD-1 ab therapy vs IgG isotype ctrl therapy in the transgenic BRAF^V600EPTEN^−/− melanoma model. Representative of 3 independent experiments. pseudo-red reflective of density. (D) Qrt-PCR analysis of Cxcl5, Cxcl2, and Cxcl1 in the BRAF^V600EPTEN^−/− melanoma cell line following treatment with recombinant Wnt5a (rWnt5a) vs vehicle ctrl (n=3). (E) Western blot analysis of Yap-1 expression in total cellular lysates (top) and nuclear lysates (middle) following treatment of BRAF^V600EPTEN^−/− melanoma cells with rWnt5a at various time points. β-actin, total lysate loading ctrl. […], nuclear lysate loading ctrl. (bottom) rWnt5a induction of CXCL5 in the absence and presence of verteporfin (YAP inhibitor) or XAV939 (β-catenin inhibitor). All representative of 3 independent experiments. […]

B1: Wnt5a: Recombinant Human/Mouse Wnt5a Protein (R&D Systems) (protein, UniProt P41221 62-380, looked up)
Protein Wnt-5a: IIGAQPLCSQLAGLSQGQKKLCHLYQDHMQYIGEGAKTGIKECQYQFRHRRWNCSTVDNTSVFGRVMQIGSRETAFTYAVSAAGVVNAMSRACREGELSTCGCSRAARPKDLPRDWLWGGCGDNIDYGYRFAKEFVDARERERIHAKGSYESARILMNLHNNEAGRRTVYNLADVACKCHGVSGSCSLKTCWLQLADFRKVGDALKEKYDSAAAMRLNSRGKLVQVNSRFNSPTTQDLVYIDPSPDYCVRNESTGSLGTQGRLCNKTSEGMDGCELMCCGRGYDQFKTVQTERCHCKFHWCCYVKCKKCTEIVDQFVCK
IL-6 and IL-12 expression in primary DCs (DCs [1]; qRT-PCR): suppresses IL-6 and IL-12 expression in primary DCs
expression of Alas1 and further enzymes of PpIX synthesis (DCs [1]; qRT-PCR): upregulated expression of Alas1 and several additional enzymes involved in PpIX synthesis
expression of TCA cycle enzymes (Idh1, Idh2, Oghd, Dld, Dlst) (DCs [1]; qRT-PCR): stimulated the expression of isocitrate dehydrogenase
expression of hexokinase (Hk) and phosphofructokinase-1 (Pfk1) (DCs [1]; qRT-PCR, after 4-8 hr of stimulation): downregulated the expression of the rate-limiting glycolytic enzymes
PPAR-γ (Pparg) and CPT1A (Cpt1a) expression (DCs [1]; real-time qPCR and immunoblot, murine and human DCs for rWnt5a): induces upregulation of Pparg and Cpt1a
DC concentrations of PpIX and hemin (DCs [2]): enhanced DC concentrations of the PpIX prosthetic group and its downstream degradation product, hemin
expression of Cxcl5, Cxcl2 and Cxcl1 [3]: increased expression of Cxcl5, Cxcl2, and Cxcl1
